Laboratory results: US20020137113A1 (Genentech, published 2002)

Target: trkB.IgG (untagged trk.IgG fusion of the trkB extracellular domain and IgG-1 Fc) (human, UniProt Q16620 32-430)
Test: competitive displacement of iodinated NT5 from trkB.IgG in 293 cell supernatant

Sequence of trkB.IgG (untagged trk.IgG fusion of the trkB extracellular domain and IgG-1 Fc) (Q16620 32-822): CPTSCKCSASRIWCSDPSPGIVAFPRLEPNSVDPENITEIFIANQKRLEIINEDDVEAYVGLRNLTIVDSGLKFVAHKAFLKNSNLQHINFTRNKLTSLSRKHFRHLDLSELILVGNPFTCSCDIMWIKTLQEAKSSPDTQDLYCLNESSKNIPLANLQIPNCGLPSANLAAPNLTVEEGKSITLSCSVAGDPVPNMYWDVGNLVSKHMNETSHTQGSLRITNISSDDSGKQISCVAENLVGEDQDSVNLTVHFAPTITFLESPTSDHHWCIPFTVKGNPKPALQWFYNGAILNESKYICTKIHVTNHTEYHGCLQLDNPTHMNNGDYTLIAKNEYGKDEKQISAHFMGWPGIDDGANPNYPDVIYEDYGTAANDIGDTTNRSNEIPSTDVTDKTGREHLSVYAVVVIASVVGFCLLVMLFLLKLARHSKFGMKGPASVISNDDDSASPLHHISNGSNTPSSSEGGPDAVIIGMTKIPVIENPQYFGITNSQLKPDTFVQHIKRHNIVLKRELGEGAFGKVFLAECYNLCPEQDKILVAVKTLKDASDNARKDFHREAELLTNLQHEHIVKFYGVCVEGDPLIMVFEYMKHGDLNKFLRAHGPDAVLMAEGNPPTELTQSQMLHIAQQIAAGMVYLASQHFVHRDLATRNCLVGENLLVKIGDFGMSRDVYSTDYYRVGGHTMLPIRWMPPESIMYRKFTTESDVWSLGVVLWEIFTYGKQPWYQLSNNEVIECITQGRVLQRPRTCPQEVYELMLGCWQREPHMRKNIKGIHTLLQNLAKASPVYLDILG

B1: neurotrophin 5 (NT5) (ligand, UniProt P34130 81-210, looked up)
chain: GVSETAPASRRGELAVCDAVSGWVTDRRTAVDLRGREVEVLGEVPAAGGSPLRQYFFETRCKADNAEEGGPGAGGGGCRGVDRRHWVSECKAKQSYVRALTADAQGRVGWRWIRIDTACVCTLLSRTGRA
notes: It is printed as NTS in several places, which I read as a misprint of NT5; The tracer in the displacement assay was the iodinated form; also called NTS
B1 gave an IC50 of 0.0311 nM.
